Test results reported in patent publication US20120183545A1 (Merck KGaA, published 2012).
Blank lines part the entries; values can stand above or below the molecule they belong to.

T1: human CD20 antigen on Daudi lymphoma cells (human) (UniProt P11836)
T1 sequence (looked up): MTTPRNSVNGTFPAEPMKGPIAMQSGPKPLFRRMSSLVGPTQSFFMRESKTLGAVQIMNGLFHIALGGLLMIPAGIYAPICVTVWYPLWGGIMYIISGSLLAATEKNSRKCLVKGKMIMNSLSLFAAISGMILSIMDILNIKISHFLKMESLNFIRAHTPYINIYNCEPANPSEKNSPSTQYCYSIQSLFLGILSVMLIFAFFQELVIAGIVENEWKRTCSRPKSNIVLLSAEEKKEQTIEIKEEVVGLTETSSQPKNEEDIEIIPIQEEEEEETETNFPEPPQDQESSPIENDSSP

B1: Leu16VhY/VkZ (anti-CD20 PC1) (antibody, IgG1, V domains shown)
VH: EVQLQQSGAELKKPGASVKVSCKASGYTFTSYNMHWVKQTPGQGLEWIGAIYPGNGDTSYNQKFKGKTTLTADKSSSTAYMELSSLRSEDTAVYYCARSNYYGSSYWFFDVWGTGTTVTVSS
VL: DIVLTQSPAIITASPGEKVTMTCRASSSVNYMDWYQKKPGSSPKPWIYATSNLASGVPSRFSGSGSGTTYSMTISSLEAEDAATYYCQQWSFNPPTFGGGTKLEIK
notes: Chimeric IgG1/kappa antibody; also called DILeu16; DI-Leu16 antibody; not shown: human kappa light chain constant region
B2: human CD20 antigen on Daudi lymphoma cells (other, UniProt P11836 1-297, looked up)
chain: T1 sequence (looked up)
notes: whole, on cells; also called Bp35

Key:
[1] = biological target: T1, human CD20 antigen on Daudi lymphoma cells (human); assay: flow cytometry on Daudi cells; antibody at 0.156 g/ml as printed
[2] = biological target: T1, human CD20 antigen on Daudi lymphoma cells (human); assay: flow cytometry on Daudi cells; antibody at 0.078 g/ml as printed
[3] = biological target: T1, human CD20 antigen on Daudi lymphoma cells (human); assay: flow cytometry on Daudi cells; antibody at 0.313 g/ml as printed
[4] = biological target: T1, human CD20 antigen on Daudi lymphoma cells (human); assay: flow cytometry on Daudi cells; antibody at 0.625 g/ml as printed
[5] = biological target: T1, human CD20 antigen on Daudi lymphoma cells (human); assay: flow cytometry on Daudi cells; antibody at 1.25 g/ml as printed
[6] = biological target: T1, human CD20 antigen on Daudi lymphoma cells (human); assay: flow cytometry on Daudi cells; antibody at 2.5 g/ml as printed
[7] = biological target: T1, human CD20 antigen on Daudi lymphoma cells (human); assay: flow cytometry on Daudi cells; antibody at 5 g/ml as printed
[8] = biological target: T1, human CD20 antigen on Daudi lymphoma cells (human); assay: flow cytometry on Daudi cells; antibody at 10 g/ml as printed
[9] = biological target: high affinity IL-2R on a mouse cell line (CTLL-2) (mouse) (UniProt P01590); assay: cell-based or functional assay
high affinity IL-2R on a mouse cell line (CTLL-2) (mouse), sequence (P01590 22-268, chain 1 of 3): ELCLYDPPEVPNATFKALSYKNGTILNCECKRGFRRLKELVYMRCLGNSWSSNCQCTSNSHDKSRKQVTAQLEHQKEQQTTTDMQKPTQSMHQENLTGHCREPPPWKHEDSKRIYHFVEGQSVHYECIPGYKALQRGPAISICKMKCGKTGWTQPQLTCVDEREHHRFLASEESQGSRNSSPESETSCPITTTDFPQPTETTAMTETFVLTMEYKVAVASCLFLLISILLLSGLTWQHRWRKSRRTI
high affinity IL-2R on a mouse cell line (CTLL-2) (mouse), sequence (P16297 27-539, chain 2 of 3, further chain): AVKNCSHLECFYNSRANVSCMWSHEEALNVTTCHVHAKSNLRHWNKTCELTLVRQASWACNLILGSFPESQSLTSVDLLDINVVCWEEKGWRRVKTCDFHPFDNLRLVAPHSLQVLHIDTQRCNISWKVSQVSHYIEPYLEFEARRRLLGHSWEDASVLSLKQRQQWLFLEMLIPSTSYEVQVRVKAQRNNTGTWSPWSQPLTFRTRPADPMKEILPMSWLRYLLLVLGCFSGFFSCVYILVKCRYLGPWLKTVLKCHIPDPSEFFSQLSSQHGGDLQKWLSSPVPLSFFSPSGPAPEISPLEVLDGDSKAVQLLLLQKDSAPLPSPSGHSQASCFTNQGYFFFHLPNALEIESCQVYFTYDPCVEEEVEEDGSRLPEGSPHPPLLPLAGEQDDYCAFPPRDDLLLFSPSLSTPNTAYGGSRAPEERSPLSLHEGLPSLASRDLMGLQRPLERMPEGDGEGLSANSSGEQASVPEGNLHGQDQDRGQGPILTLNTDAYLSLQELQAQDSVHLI
high affinity IL-2R on a mouse cell line (CTLL-2) (mouse), sequence (P34902 23-369, chain 3 of 3, further chain): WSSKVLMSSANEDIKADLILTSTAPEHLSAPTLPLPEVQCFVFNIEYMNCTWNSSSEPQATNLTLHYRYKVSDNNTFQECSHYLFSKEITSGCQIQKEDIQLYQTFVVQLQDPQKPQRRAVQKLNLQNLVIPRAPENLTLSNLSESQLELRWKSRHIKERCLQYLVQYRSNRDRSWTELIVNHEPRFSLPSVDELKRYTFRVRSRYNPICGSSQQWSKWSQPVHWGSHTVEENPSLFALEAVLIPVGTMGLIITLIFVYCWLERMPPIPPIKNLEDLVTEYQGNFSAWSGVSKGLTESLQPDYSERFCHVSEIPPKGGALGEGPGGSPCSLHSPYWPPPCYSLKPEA

[10] = biological target: IL-2 Rβ on TF-1β cells (UniProt P14784); assay: cell-based or functional assay
IL-2 Rβ on TF-1β cells, sequence (P14784 27-551): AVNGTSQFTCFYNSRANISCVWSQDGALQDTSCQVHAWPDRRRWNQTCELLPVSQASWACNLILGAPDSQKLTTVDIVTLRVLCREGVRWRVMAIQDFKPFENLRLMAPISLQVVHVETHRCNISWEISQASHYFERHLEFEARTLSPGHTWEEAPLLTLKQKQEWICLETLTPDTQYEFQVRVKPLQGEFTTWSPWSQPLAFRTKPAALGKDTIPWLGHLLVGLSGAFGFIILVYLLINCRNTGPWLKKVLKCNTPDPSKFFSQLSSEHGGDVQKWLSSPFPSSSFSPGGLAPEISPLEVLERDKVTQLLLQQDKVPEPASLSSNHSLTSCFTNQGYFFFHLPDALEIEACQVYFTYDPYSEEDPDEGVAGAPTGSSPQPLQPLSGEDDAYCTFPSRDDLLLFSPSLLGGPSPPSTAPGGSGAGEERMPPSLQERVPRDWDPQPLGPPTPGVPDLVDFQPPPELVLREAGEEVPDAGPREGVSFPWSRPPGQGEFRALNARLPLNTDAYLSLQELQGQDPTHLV

[11] = biological target: B2; assay: flow cytometry on Daudi cells, FIG. 6 Panel A
Method: FIG. 6 illustrates the anti-CD20 binding activity of CD20-binding polypeptide compositions and immunocytokines (ICs). Human Daudi lymphoma cells were incubated with varying concentrations of polypeptide compositions and ICs and relative binding to the cells was assessed by flow cytometry, as described in Example 2.
(§1) Approximately 10⁶ Daudi cells were used with various concentrations of antibody or antibody-IL2 fusion protein in a 100 μl volume, for each sample tested.

[12] = biological target: T2, Leu16VhY/VkZ-IL2 (anti-CD20 PC2) (human, UniProt P60568 21-153); assay: flow cytometry on Daudi cells
T2 construct: Antibody-IL2 fusion (immunocytokine), glycosylated; also called AbVhY/VkZ-IL2; Ab(VhY/VkZ)-IL2; not shown: human kappa light chain constant region
T2 sequence (P60568 21-153 limits assumed): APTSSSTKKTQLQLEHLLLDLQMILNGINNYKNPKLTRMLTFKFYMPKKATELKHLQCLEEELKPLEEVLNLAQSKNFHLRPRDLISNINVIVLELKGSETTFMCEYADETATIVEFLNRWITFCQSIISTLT
Method: as §1

mean fluorescence intensity [1]: 85.3 | mean fluorescence intensity [2]: 52.1 | mean fluorescence intensity [3]: 147 | mean fluorescence intensity [4]: 229 | mean fluorescence intensity [5]: 369 | mean fluorescence intensity [6]: 513 | mean fluorescence intensity [7]: 720 | mean fluorescence intensity [8]: 857
Molecule: 2B8-IL2 fusion protein

CTLL-2 ED50 [9]: 1.71 ng/mL | TF-1β ED50 [10]: 0.51 ng/mL
Molecule: KS-IL2, anti-EpCAM antibody fused to human IL-2 at the C-terminus of the antibody heavy chains (from UniProt P60568 21-153)

CTLL-2 ED50 [9]: 0.65 ng/mL
Molecule: human rIL-2 (from UniProt P60568 21-153) (ligand)

Molecule: B1
binding result [11]: binds

Molecule: B2
binding result [12]: binds
